The assay has as its target 6xHis-XRCC4^1-164 (C-to-A), wildtype for the SIMs (human) (UniProt Q13426). The assay is described as follows: SPR.

In turn, “polySUMO2 chains (enzymatically linked via the internal K11) (from UniProt P61956 1-95)” gave a fold increase in KD against full-length XRCC4 of 3 fold.

(Values after article doi:10.1101/2021.01.20.427433.)
